Experimental data taken from paper PMC6713926, “Structural Basis for Properdin Oligomerization and Convertase Stimulation in the Human Complement System” (Frontiers in Immunology, 2019).

Biological target: T1, FPht, monomeric FP head-tail protein from co-expression of FPh and FPt (human)
T1 construct: properdin (FP), human, TB-TSR3 head fragment (FPh), expressed with the endogenous FP signal peptide; the head fragment of FPc is residues 28-255; properdin (FP), human, TSR4-6 tail fragment (FPt); the tail fragment of FPc is residues 256-469; also called FPht WT; WT FPht
T1 chain 1: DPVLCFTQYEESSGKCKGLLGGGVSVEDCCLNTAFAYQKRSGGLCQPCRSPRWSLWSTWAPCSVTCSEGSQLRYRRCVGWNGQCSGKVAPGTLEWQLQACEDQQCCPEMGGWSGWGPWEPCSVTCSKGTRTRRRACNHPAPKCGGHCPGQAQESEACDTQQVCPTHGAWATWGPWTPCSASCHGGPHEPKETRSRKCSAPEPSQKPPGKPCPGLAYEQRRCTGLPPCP
T1 chain 2: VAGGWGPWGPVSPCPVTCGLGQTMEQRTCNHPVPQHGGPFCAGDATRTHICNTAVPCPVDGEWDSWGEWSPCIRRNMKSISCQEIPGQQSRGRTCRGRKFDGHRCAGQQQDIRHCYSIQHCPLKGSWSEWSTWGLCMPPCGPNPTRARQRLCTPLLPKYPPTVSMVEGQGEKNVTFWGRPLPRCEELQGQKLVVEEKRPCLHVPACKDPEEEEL
Experiment: BLI; hFPNb1 amine-coupled on AR2G sensors, FPht (20 μg/mL) loaded on it; C3b, FB variants or C3b + FB at 50 μg/mL each; 30°C; 20 mM MES pH 6.0, 100 mM NaCl, 0.05% Tween, 1 mg/mL BSA, 5 mM MgCl2; FB signal subtracted
Settings: both partners purified

B1: hFPNb1, FP specific non-inhibitory nanobody (VHH)
VHH: QVQLVESGGGLVQAGGSLRLSCAASERTFTIYAMGWFRQAPGKEREFVAAISRSGENTDYADSVKGRFTISRDNNKNTISLQMNSLKPEDTAVYYCAAGRAILVHTTKKEYDHWGQGTQVTVSS
notes: llama nanobody selected by phage display against FPc
  binding result: binds
